According to patent publication US20110086044A1, “Compositions and Methods to Inhibit HPV Infection” (University of Southern California, priority 2009, published 2011):

Experiments:
ANXA2 heterotetramer = target: T1, ANXA2 heterotetramer (Homo sapiens, UniProt P07355); assay: L2108-120 peptide pulldown assay from Langerhans cells (silver stain, mass spectrometry, immunoblot); format: binding
T1 construct: endogenous in cells; host or cells: human monocyte-derived Langerhans cells (from PBL of healthy donors)
T1 sequence (P07355 2-339 limits assumed): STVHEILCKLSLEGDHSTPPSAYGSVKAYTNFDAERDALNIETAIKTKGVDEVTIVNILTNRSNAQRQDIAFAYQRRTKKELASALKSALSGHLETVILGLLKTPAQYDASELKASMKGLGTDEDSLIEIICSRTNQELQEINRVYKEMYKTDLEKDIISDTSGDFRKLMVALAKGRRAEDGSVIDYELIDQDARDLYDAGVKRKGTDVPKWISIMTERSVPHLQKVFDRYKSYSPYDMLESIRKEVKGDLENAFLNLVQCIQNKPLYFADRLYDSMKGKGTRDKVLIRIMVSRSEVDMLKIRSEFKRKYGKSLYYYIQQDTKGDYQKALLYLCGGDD
T1 sequence (P60903 2-97 partner limits assumed): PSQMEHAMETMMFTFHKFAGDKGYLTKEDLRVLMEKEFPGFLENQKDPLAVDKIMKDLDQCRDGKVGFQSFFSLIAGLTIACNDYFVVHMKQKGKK
Procedure: LC were incubated with either no peptide or 50 μg/5×10^5 cells of 6×His-L2108-120 peptide and subsequently cross-linked with DTSSP. Cells were then lysed and mixed with a Ni-NTA agarose slurry overnight and ten fractions were eluted. Non-reduced eluates were electrophoresed, transferred to nitrocellulose and probed with an anti-ANXA2 antibody or an anti-6×His antibody, followed by a peroxidase-labeled secondary antibody. Antibody binding was detected with enhanced chemiluminescence.
A. LC were incubated with either no peptide or (6×)His-L2108-120 peptide and subsequently cross-linked with DTSSP. Cells were lysed and mixed with a Ni-NTA agarose slurry and eluted. Reduced eluate 5 was electrophoresed and silver stained. The unique band right above ˜39 kDa was isolated and analyzed by mass spectrometry. One representative experiment of two is shown. B. LC were incubated with either no peptide or (6×)His-L2108-120 peptide and subsequently cross-linked with DTSSP. Cells were then lysed and mixed with a Ni-NTA agarose slurry overnight and eluted. Eluates were then electrophoresed, transferred to nitrocellulose and probed with either an anti-ANXA2 or an anti-ANXA2 light chain antibody. […]. One representative experiment of two is shown.
L2108-120 Peptide Pulldown Assay. […] The eluates were collected and analyzed by non-reducing immunoblots and reduced silver stain gels. […]

[1] = cited from earlier work
HPV16L1L2 VLP [2] = assay: HPV16L1L2 VLP binding assay on Langerhans cells (flow cytometry, H16.V5 antibody); format: cell-based, human; conditions: increasing peptide concentrations (1-100 μg)/0.5×10^6 cells, 1 h at 4° C.
Procedure: LC were incubated with increasing concentrations of the L2108-120 peptide and subsequently incubated with HPV16L1L2 VLP. HPV16L1L2 VLP remaining on the surface of LC were detected using a L1 specific conformational antibody (H16.V5). Binding was assessed by flow cytometry.
HPV16L1L2 VLP Binding Assay. LC were incubated with the HPV16 L2 peptide aa 108-120 ([…] SEQ ID NO: 4) (Kawana et al. (2001) J. Virol. 75: 2331-6) at varying concentrations (1-100 μg)/0.5×10^6 cells for 1 h at 4° C. Subsequently, the LC were incubated with 0.25 μg of HPV16L1L2 VLP/treatment for 1 h at 4° C. and then incubated with an anti-L1 (H16.V5) antibody (a gift from Neil Christensen, Penn State University) at a concentration of 1:25,000 for 30 min at 4° C. The cells were then incubated with biotinylated anti-mouse-IgG2b at a concentration of 1:50 for 30 min at 4° C. Next, the HPV16L1L2 VLP/anti-L1/biotin treated cells were stained with streptavidin-FITC at a concentration of 1:50 for 30 min. The cells were washed between each incubation with 135 μl FACS buffer. In control experiments, cells were left untreated or probed with either peptide/anti-L1/biotin-strepavidin-FITC or VLP/anti-L1/biotin-strepavidin-FITC. Finally, HPV16L1L2 VLP binding to LC was assessed by flow cytometry. Binding is calculated as the MFI of the sample divided by the MFI of the untreated control multiplied by 100.

ANXA2 = assay: siRNA inhibition of ANXA2 in LC, ANXA2 protein expression by immunoblot; format: cell-based, human; conditions: Amaxa nucleofection
Procedure: (§1) FIGS. 8A & B are gel pictures showing downregulation of ANXA2 inhibits uptake of HPV16L1L2 VLP. A. LC were transfected using the Amaxa Nucleofector kit without siRNA (Untreated), with control siRNA or with two different ANXA2 siRNA sequences. The cells were incubated for 6 days before analysis of ANXA2 protein expression by immunoblot. GAPDH served as the loading control. One representative experiment of three is shown. B. LC were transfected using the Amaxa Nucleofector kit without siRNA (Untreated), with control siRNA or with ANXA2 siRNA #2. The cells were incubated for 6 days and exposed to CFDA-SE labeled HPV16L1L2 VLP for 15 min. Uptake was assessed by flow cytometry.
(§2) siRNA Inhibition of ANXA2 in LC and HPV16 VLP Uptake Assay. ANXA2 siRNA was synthesized at the USC Genomics Core (Los Angeles, Calif.) based on the sequences: ANXA2 siRNA #1 ([…])/([…]) (SEQ ID NO: 5); ANXA2 siRNA #2 ([…])/([…]) (SEQ ID NO: 6). Control siRNA was from (S76). ANXA2 or Control siRNA was transfected into LC using the Amaxa Human Dendritic Cell Nucleofector kit (Lonza) as directed by the manufacturer's instructions. The cells were incubated for 6 days before they were analyzed by an anti-ANXA2 immunoblot and used in an HPV16 VLP uptake assay. HPV VLP were labeled with CFDA-SE as described above. […] Finally, HPV16 VLP uptake by LC was assessed via flow cytometry.

HPV16L1L2 VLP [3] = assay: HPV16L1L2 VLP uptake assay in siRNA-transfected LC (flow cytometry); format: cell-based, human; conditions: 6 days after transfection, VLP 15 min; compared to untreated and control siRNA treated LC
Procedure: as §1, §2

HPV16L1 VLP = assay: HPV16 VLP uptake assay with SLPI: uptake of CFDA-SE labeled HPV16L1 VLP by Langerhans cells (flow cytometry); format: cell-based, human; conditions: SLPI 30 ug/ml (optimal concentration), VLP 15 min; Example 2
Procedure: (§3) LC were left untreated or incubated with 30 μg human recombinant SLPI (R&D Systems) for 1 h at 4° C. Subsequently, the cells were washed and incubated with CFDA-SE-labeled HPV16 L1 VLP or HPV16 L1L2 VLP at 37° C. After 15 min, cells were washed at 4° C., then fixed with 1% paraformaldehyde and analyzed for intracellular CFDA-SE by flow cytometry. Percent of VLP uptake was calculated using the following equation: [(MFI experimental plus SLPI)−(MFI background)/[(MFI experimental untreated cells)−(MFI background)]×100. Shown is the average uptake of 3 experiments (±SEM). *p=0.04 compared to untreated LC.
(§4) FIGS. 7A & B are charts showing that SLPI inhibits the uptake of HPV16L1L2 VLP by LC. A. LC were incubated with increasing concentrations of SLPI, then incubated with CFDA-SE labeled HPV16L1L2 VLP for 15 min. Uptake of CFDA-SE labeled HPV16L1L2 VLP by LC was assessed by flow cytometry. The mean percentage of uptake ±SEM of three separate experiments is presented (*P<0.05 by a two-tailed, paired t-test, as compared to the negative control). […] Uptake of CFDA-SE labeled HPV16 VLP by LC was assessed by flow cytometry. […]
(§5) HPV16 VLP Uptake Assay with SLPI. […] Finally, HPV16 VLP uptake by LC was assessed via flow cytometry. Percent uptake is calculated as the mean fluorescent intensity (MFI) of the sample divided by the MFI of the untreated control multiplied by 100.

HPV16L1L2 VLP [4] = assay: HPV16 VLP uptake assay with SLPI: uptake of CFDA-SE labeled HPV16L1L2 VLP by Langerhans cells (flow cytometry); format: cell-based, human
Procedure: as §3, §4, §5

## (6×)His-L2108-120 peptide: 6×His-tagged HPV16 L2 aa 108-120 peptide used for pulldown (HHHHHHLVEETSFIDAGAP)
ANXA2 heterotetramer; 50 μg/0.5×10^6 cells, DTSSP cross-linking, elution 5
  protein pulled down from LC, unique silver-stain band identified by mass spectrometry: predicted to be annexin A2 (ANXA2)

## CCOCc1nc2c(N)nc3ccccc3c2[nH]1 [CL097]
[1]
  water solubility: ≤ 20 mg/mL

## LVEETSFIDAGAP (listed as Human papillomavirus) [L2108-120 peptide]
HPV16L1L2 VLP [2]
  HPV16L1L2 VLP bound to the LC surface: significantly decreased numbers of HPV16L1L2 VLP bound to the LC surface
ANXA2 heterotetramer; anti-ANXA2 and anti-ANXA2 light chain antibodies
  proteins in pulldown eluates by immunoblot: both ANXA2 and ANXA2 light chain were present

## (CGGGAUGCUUUGAACAUUGAATT)/(UUCAAUGUUCAAAGCAUCCCGTT) (chemistry not given here) [ANXA2 siRNA #2]
ANXA2
  time of optimal ANXA2 protein knockdown post-transfection: 6 days
HPV16L1L2 VLP [3]
  uptake of HPV16L1L2 VLP into LC: significantly reduced the uptake of HPV16L1L2 VLP into LC

B1: SLPI: recombinant human secretory leukocyte protease inhibitor (R&D Systems), serine protease inhibitor and ligand of ANXA2; SEQ ID NO: 2 (protein, listed as Homo sapiens)
chain: MKSSGLFPFLVLLALGTLAPWAVEGSGKSFKAGVCPPKKSAQCLRYKKPECQSDWQCPGKKRCCPDTCGIKCLDPVDTPNPTRRKPGKCPVTYGQCLMLNPPNFCEMDGQCKRDLKCCMGMCGKSCVSPVKA
HPV16L1 VLP
  internalization of HPV16L1 VLP by LC: did not inhibit HPV16L1 VLP uptake
HPV16L1L2 VLP [4]; 30 μg SLPI 1 h at 4° C., then VLP 15 min at 37° C., FIG. 2, 3 experiments
  uptake of HPV16L1L2 VLP into LC: blocks HPV16 L1L2 VLP uptake into LC
HPV16L1L2 VLP [4]; increasing concentrations (5-30 μg/ml) of SLPI, VLP 15 min, Example 2
  internalization of HPV16L1L2 VLP by LC: LC internalized decreasing amounts of HPV16L1L2 VLP
